# B1: Brefeldin A-inhibited guanine nucleotide-exchange protein 2 (Homo sapiens), Q9Y6D5 (parent)
# chain: MQESQTKSMFVSRALEKILADKEVKRPQHSQLRRACQVALDEIKAEIEKQRLGTAAPPKANFIEADKYFLPFELACQSKSPRVVSTSLDCLQKLIAYGHITGNAPDSGAPGKRLIDRIVETICSCFQGPQTDEGVQLQIIKALLTAVTSPHIEIHEGTILQTVRTCYNIYLASKNLINQTTAKATLTQMLNVIFTRMENQVLQEARELEKPIQSKPQSPVIQAAAVSPKFVRLKHSQAQSKPTTPEKTDLTNGEHARSDSGKVSTENGDAPRERGSSLSGTDDGAQEVVKDILEDVVTSAIKEAAEKHGLTEPERVLGELECQECAIPPGVDENSQTNGIADDRQSLSSADNLESDAQGHQVAARFSHVLQKDAFLVFRSLCKLSMKPLGEGPPDPKSHELRSKVVSLQLLLSVLQNAGPVFRTHEMFINAIKQYLCVALSKNGVSSVPDVFELSLAIFLTLLSNFKMHLKMQIEVFFKEIFLNILETSTSSFEHRWMVIQTLTRICADAQCVVDIYVNYDCDLNAANIFERLVNDLSKIAQGRSGHELGMTPLQELSLRKKGLECLVSILKCMVEWSKDLYVNPNHQTSLGQERLTDQEIGDGKGLDMARRCSVTSMESTVSSGTQTTVQDDPEQFEVIKQQKEIIEHGIELFNKKPKRGIQFLQEQGMLGTSVEDIAQFLHQEERLDSTQVGDFLGDSARFNKEVMYAYVDQLDFCEKEFVSALRTFLEGFRLPGEAQKIDRLMEKFAARYIECNQGQTLFASADTAYVLAYSIIMLTTDLHSPQVKNKMTKEQYIKMNRGINDSKDLPEEYLSSIYEEIEGKKIAMKETKELTIATKSTKQNVASEKQRRLLYNLEMEQMAKTAKALMEAVSHAKAPFTSATHLDHVRPMFKLVWTPLLAAYSIGLQNCDDTEVASLCLEGIRCAIRIACIFGMQLERDAYVQALARFSLLTASSSITEMKQKNIDTIKTLITVAHTDGNYLGNSWHEILKCISQLELAQLIGTGVKTRYLSGSGREREGSLKGHTLAGEEFMGLGLGNLVSGGVDKRQMASFQESVGETSSQSVVVAVDRIFTGSTRLDGNAIVDFVRWLCAVSMDELASPHHPRMFSLQKIVEISYYNMNRIRLQWSRIWHVIGDHFNKVGCNPNEDVAIFAVDSLRQLSMKFLEKGELANFRFQKDFLRPFEHIMKKNRSPTIRDMAIRCIAQMVNSQAANIRSGWKNIFAVFHQAASDHDGNIVELAFQTTCHIVTTIFQHHFPAAIDSFQDAVKCLSEFACNAAFPDTSMEAIRLIRFCGKYVSERPRVLQEYTSDDMNVAPGDRVWVRGWFPILFELSCIINRCKLDVRTRGLTVMFEIMKSYGHTFEKHWWQDLFRIVFRIFDNMKLPEQLSEKSEWMTTTCNHALYAICDVFTQFYEALNEVLLSDVFAQLQWCVKQDNEQLARSGTNCLENLVISNGEKFSPEVWDETCNCMLDIFKTTIPHVLLTWRPVGMEEDSSEKHLDVDLDRQSLSSIDKNPSERGQSQLSNPTDDSWKGRPYANQKLFASLLIKCVVQLELIQTIDNIVFYPATSKKEDAEHMVAAQQDTLDADIHIETEDQGMYKYMSSQHLFKLLDCLQESHSFSKAFNSNYEQRTVLWRAGFKGKSKPNLLKQETSSLACCLRILFRMYVDENRRDSWEEIQQRLLTVCSEALAYFITVNSESHREAWTSLLLLLLTKTLKINDEKFKAHASMYYPYLCEIMQFDLIPELRAVLRKFFLRIGVVYKIWIPEEPSQVPAALSPVW
# Variants of: B1
# Conditions: with kap3_human PRKAR2B
row,Variant,effect of a mutation on the interaction
1,V289W,disrupting interaction
2,V534W,disrupting interaction

# Reference: IntAct's records for PubMed 18625701
